Assay results taken from US20240425607A1, “IL-18BP ANTAGONIST ANTIBODIES AND THEIR USE IN MONOTHERAPY AND COMBINATION THERAPY IN THE TREATMENT OF CANCER” (Compugen Ltd., priority 2023, published 2024).
pKd: −log10 of the molar value. Blank lines part the entries; values can stand above or below the substance they belong to.

Assays:
[1] = biological target: human IL-18BP (recombinant, construct not stated) (human) (UniProt O95998); test: Biacore
[2] = biological target: human IL-18BP (recombinant, construct not stated) (human) (UniProt O95998); test: KinExA
[3] = biological target: cynomolgus monkey IL-18BP (construct not stated) (cynomolgus monkey); test: KinExA, solution equilibrium

human IL-18BP (recombinant, construct not stated) (human), sequence (O95998 31-194 limits assumed): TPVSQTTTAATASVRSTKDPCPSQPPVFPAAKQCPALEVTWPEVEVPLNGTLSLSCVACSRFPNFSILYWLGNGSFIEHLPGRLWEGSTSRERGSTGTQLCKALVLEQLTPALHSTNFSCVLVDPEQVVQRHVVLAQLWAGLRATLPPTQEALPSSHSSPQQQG

pKd [1]: 9.56
Substance: anti-human IL18BP antibody clone 136007 (cat. MAB1191, R&D systems)

pKd [2]: 10.20
Substance: anti-human IL18BP antibody clone W19089C (cat. 947703, Biolegend)

pKd [3]: 12.46
Substance: cyno IL-18 (from UniProt A0A2K5TJ84 37-193) (ligand)
